According to patent US20250019450A1 (DIAGONAL THERAPEUTICS, published 2025):
Positions count from the first letter of the chain named.

B1: 85801_01002 (antibody, V domains shown)
VH: QVQLVQSGAEVRKPGASVKVSCKASGYTFTDYYMHWVRQAPGQGLEWMGWINPDNGGANYAQRFLGRVTMTRDTSISTAYMELSRLRSDDTAVYYCAREGSGSPYAFDLWGLGTVVTVSS
VL: DIQLTQSPSFLSASVGDRVTITCRASQGISSYLAWYQQKPGKAPKLLIYAASTLQSGVPSRFSGSGSGTEFTLTISSLQPEDFATYCCQQLNRYPFTFGQGTKLEIK
notes: also called 85801_01O02A
B2: 85801_02K24 (antibody, V domains shown)
VH: QVQLQESGPGLVKPSETLSLTCTVSGGSISSYDWSWIRQSAGKGLEWIGRIYTSGSTIYNPSLKSRVTMSVDTSKNEISLKLSSVTAADTAFYYCAKDRGNYPHDAFDIWGQGTMITVSS
VL: B1 VL with Y32F, C87Y, R93G, Q100P, L104V, E105D
notes: also called 85801_02K24A
B3: 85801_10F19 (antibody, V domains shown)
VH: QVQLVQSGAEVRKPGASVKVSCKASGYTFTDYYMHWVRQAPGQGREWMGWINPNSGGTHYAQKFQGRVTMTWDTSISTAYMELSRLRSDDTAVYYCAREGATTVYFDYWGQGTLVTVSS
VL: B1 VL with I21L, S30N, S31N, Q38E, K45N, L46P, A50D, C87Y, R93M, F96Y
notes: also called 85801_10F19A
B4: 85801_04D14 (antibody, V domains shown)
VH: QVHLVQSGAEVKKPGASVKVSCKASGYTFIDYYMHWVRQAPGQGLEWMGWINPNSGGTHYSQKFQGRVTMTWDTSISTAYMELSRLTSDDTAVYYCAREGDYISSSAFDYWGQGTLVTVSS
VL: B1 VL with L46V, Q79L, C87F, N92H, F96Y, T102A
notes: also called 85801_04D14A
B5: 85801_02N03 (antibody, V domains shown)
VH: QVHLVQSGAEVKKPGASVKVSCEASGYTFTDYYIHWLRQAPGQGLEWMGWINPNSGGTHYAQKFQGRVTMTRDTSISTAYMELSRLSSDDTAVYYCAREGGWNYFSGMDVWGQGTTVTVSS
VL: B1 VL with K39Q, A43P, Q55H, C87Y, F96Y, F98C
notes: also called 85801_02N03A
B6: 85801_04M10 (antibody, V domains shown)
VH: QVQLQESGPGLVKPSETLSLTCTVSGGSISSYYWSWIRQPAGTGLEWIGRFYTSGSTIYNPSLESRVTMSVDTSKNQFSLKLSSVTAADTAVYYCATERDYPHDAFDIWGQGTMVTVSS
VL: B1 VL with T22P, G28D, Y32F, K45N, C87Y, R93G, F96L, Q100G, L104V
notes: also called 85801_04M10A
B7: 85801_03P23 (antibody, V domains shown)
VH: EVQLVESGGGLVQPGGSLRLSCAASGFTFSSYWMSWVRQAPGKGLEWVANIKQDGSEKYYVDSVKGRFTISRDNAKNSLYLQMNSLRAEDTAVYYCARGSIAAPFDYWGQGTLVTVSS
VL: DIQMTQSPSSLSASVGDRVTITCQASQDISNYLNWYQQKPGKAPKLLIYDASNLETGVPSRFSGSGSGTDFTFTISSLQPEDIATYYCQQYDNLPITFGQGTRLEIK
notes: also called 85801_03P23A
B8: 85801_02011 (antibody, V domains shown)
VH: EVQLVESGGGLVQPGGSLRLSCAASGFTFSSYDMNWVRQAPGKGLEWISYINSRSSTIYYADSVKGRFTISRDNAKNSLYLQMNSLRDEDTALYYCAREIEDSMDVWGQGTTVTVSS
VL: QSVLTQPPSVSAAPGQKVTISCSGSSSNIGNNYVSWYQQLPGTAPKLLIYDNNERPSGIPDRFSGSKSGTSATLGITGLQPGDEADYYCGTWDSSLSAGVFGGGTKLTVL
notes: also called 85801_02O11A
B9: 85801_04M12 (antibody, V domains shown)
VH: QVQLVESGGGVVQPGRSLRLSCAASGFTFSSHGMHWVRQAPGKGLEWVAIIWYAGNKKYYADSVKGRFTISRDNSKNTLYLQMNSLRAEDTAVYYCARESLLNSASDIWGQGTMVTVSS
VL: B8 VL with K17T, E54K, P81T, G99V
notes: also called 85801_04M12A
B10: 85801_04D10 (antibody, V domains shown)
VH: EVQLLESGGGLVQPGGSLRLSCAASGFTFSSYAMSWVRQAPGKGLEWVAGISGSGGGIYYADSVKGRFTISRDNSKNTLYLQLNSLRADDTAVYYCARRLIGYWYFDLWGRGTLVPVSS
VL: DIQMTQSPSSLSASVGDRVTITCRASQGISNYLAWFQQKPGKAPKSLIYAASSLQSGVPSKFSGSGSGTDFTLTISSLQPEDFATYYCQQYNSYPPTFGGGTKVEIK
notes: also called 85801_04D10A
B11: 85801_06L19 (antibody, V domains shown)
VH: QVQLVQSGAEVKKPGASVKVSCKASGYTFTDYYIHWVRQAPGQGLEWMGWINPDSGGTHYAQKFQGRVTMTRDTSISTVYMDLSRLRSDDTAVYYCAREGEGLASFDSWGQGTLVTVSS
VL: B10 VL with D17N, S30N, S93N, P96F, G100P, E105D
notes: also called 85801_06L19A
B12: 85801_05G01 (antibody, V domains shown)
VH: QVQLVQSGAEVKKPGASAKVSCKASGYTFTDYYLHWVRQAPGQGLEWMGWINPNNGGTHYAQKFQGRVTMTRDTSISTAYMELSRLRSDDTAVYYCAREMGGTTAFDYWGQGTLVTVSS
VL: B10 VL with S30G, K39R, E81A, T85I, S93I, P96Y, G100P, K103R, V104L
notes: also called 85801_05G01A
B13: 85801_07A01 (antibody, V domains shown)
VH: EVQLVESGGGLVQPGGSLRLSCAASGFTFSSYWMSWVRQAPGKGLEWVANIKQDGSEKYYVDSVKGRFTISRDNAKNSLYLQMNSLRAEDTAVYYCAREGLQLGIFDYWGQGTLVTVSS
VL: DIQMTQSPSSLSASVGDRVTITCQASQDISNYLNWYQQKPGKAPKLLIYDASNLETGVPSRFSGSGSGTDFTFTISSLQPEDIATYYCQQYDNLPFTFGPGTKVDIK
notes: also called 85801_07A01A
B14: 85801_04G23 (antibody, V domains shown)
VH: QVQLVESGGGVVQPGRSLRLSCAASGFTFSSYGMHWVRQAPGKGLEWVAVIWNDGSNKYYADSVKGRFTISRDNSKNTLYLQMNSLRAEDTAVYYCARGELFFDYWGQGTLVTVSS
VL: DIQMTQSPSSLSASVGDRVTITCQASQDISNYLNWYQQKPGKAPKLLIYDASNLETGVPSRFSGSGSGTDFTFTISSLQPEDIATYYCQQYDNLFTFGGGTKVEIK
notes: also called 85801_04G23A
B15: 85801_10M19 (antibody, V domains shown)
VH: EVQLVESGGGLVQPGGSLRLSCAASGFTFSSYDMHWVRQATGKGLEWVSVIGTAGDTYYPGSVKGRFTISRENAKNSLYLQMNSLRAGDTAVYYCARSRGETDWYFDLWGRGTLVTVSS
VL: EIVLTQSPATLSLSPGERATLSCRASQSVSRLLAWYQQKPGQAPRLLIYDASNRATGIPARFSGSGSGTDFTLTISSLEPEDFAVYYCQQRRNWLTFGGGTKVEIK
notes: also called 85801_10M19A
B16: 85801_05F05 (antibody, V domains shown)
VH: QVQLQQWGAGLLKPSETLSLTCAVYGGSFSGYYWNWIRQPPGKGLEWIGEINHSGSTHYNPSLKSRVTISVDTSKNQFSLKLSSVTAADTALYYCARALTGYFDYWGQGTLVTVSS
VL: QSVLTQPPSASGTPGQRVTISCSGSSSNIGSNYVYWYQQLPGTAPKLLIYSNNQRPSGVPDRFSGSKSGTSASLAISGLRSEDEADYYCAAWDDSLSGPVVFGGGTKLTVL
notes: also called 85801_05F05A
B17: 85801_01M07 (antibody, V domains shown)
VH: QVQLVQSGAEVKKPGASVKVSCKASEYTFTDDYMHWVRQAPGQGLVWMGWINPNSGGTNYAQKFQGRVTMTRDTSISTAYMELSRLRSDDTAVYYCARGGLNWGWDWFDPWGQGTLVTVSS
VL: EIVLTQSPGTLSLSPGERATLSCRASQNINNNYLAWYQRKPGQAPRLLIYGASSRATGIPDRFSGSGSGTDFTLTISRLEPEDFAMYYCQQYGSSLTFGGGTKVEIK
notes: also called 85801_01M07A
B18: 85801_04M04 (antibody, V domains shown)
VH: QVQLVQSGAEVKKPGASVRVSCKASGYTFTSYYIHWVRQAPGQGLEWMGIINPSGGSTSYAQKFQGRVTMTRDTSTTTVYMELSSLRSEDTAVYYCAKSNWAYAFDIWGQGTMVTVSS
VL: SSELTQDPAVSVALGQTVRITCQGDSLSSYYAGWYQQKPGQAPVLVIYGKNNRPSGIPDRFSGSSSEDTASLTITGAQAEDEADYYCNSRDSSDNHLVFGGGTKLTVL
notes: also called 85801_04M04A

The binders below were run against T1, IL-12 receptor endogenously expressed on THP-1 cells (UniProt P42701 24-662; Q99665 24-862) (assay: FACS, hybridoma supernatant, THP-1).
T1 construct: whole, on cells

Fold over buffer	Binder
38 fold	B1
33 fold	B2
8 fold	B3
17 fold	B4
41 fold	B5
36 fold	B6
39 fold	B7
35 fold	B8
45 fold	B9
42 fold	B10
9 fold	B11
7 fold	B12
37 fold	B13
46 fold	B14
35 fold	B15
56 fold	B16
7 fold	B17
12 fold	B18

What follows are binders tested against T2, human IL-12RB1 overexpressed on 293T cells (Example 2) (human, UniProt P42701 24-662) (assay: FACS, hybridoma supernatant, 293T).
T2 construct: whole, on cells

Fold over parental 293T	Binder
107 fold	B1
130 fold	B2
41 fold	B3
202 fold	B4
221 fold	B5
336 fold	B6
69 fold	B7
114 fold	B8
192 fold	B9
76 fold	B10
73 fold	B11
170 fold	B12
57 fold	B13
73 fold	B14
58 fold	B15
311 fold	B16
91 fold	B17
620 fold	B18

These binders were tested against T3, cyno IL-12RB1 overexpressed on 293T cells (Example 2) (cyno, UniProt A0A2K5VWV1 24-662) (assay: FACS, hybridoma supernatant, 293T).
T3 construct: whole, on cells

Fold over parental 293T	Binder
13 fold	B1
53 fold	B2
16 fold	B3
44 fold	B4
85 fold	B5
122 fold	B6
23 fold	B7
56 fold	B8
71 fold	B9
20 fold	B10
25 fold	B11
73 fold	B12
21 fold	B13
27 fold	B14
21 fold	B15
118 fold	B16
28 fold	B17
195 fold	B18
